According to patent US20190359723A1:

Key:
IL-13RA2 huFc (human) [1] = assay: SPR (Biacore T200), scFv_Fc forms on IL-13RA2 huFc, summary table
[2] = target: T1, IL-13RA2 endogenously expressed on U251 cells (human) (UniProt Q14627); assay: flow cytometry on U251 cells, scFv_Fc form, 5-fold dilutions from 2,000 nM, FITC anti-human IgG
T1 sequence (looked up): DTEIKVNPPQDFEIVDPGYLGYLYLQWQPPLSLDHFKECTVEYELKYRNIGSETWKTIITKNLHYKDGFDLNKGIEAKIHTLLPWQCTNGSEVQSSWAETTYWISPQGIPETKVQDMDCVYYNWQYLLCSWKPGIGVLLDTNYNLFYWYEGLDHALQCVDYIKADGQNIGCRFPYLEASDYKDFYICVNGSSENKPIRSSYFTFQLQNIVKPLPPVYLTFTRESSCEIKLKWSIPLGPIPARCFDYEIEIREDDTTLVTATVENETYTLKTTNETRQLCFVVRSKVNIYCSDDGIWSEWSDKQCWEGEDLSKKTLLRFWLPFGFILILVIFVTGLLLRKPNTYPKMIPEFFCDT

IL-13RA2 huFc (human) [3] = assay: SPR (Biacore T200), ligand IL13Ra2 on the chip, scFv_Fc as analyte at 6.25 to 100 nM, 1:1 binding fit, flow 30 ul/min

Kd (IL-13RA2 huFc (human) [1]): 0.348 nM
koff (IL-13RA2 huFc (human) [1]): 0.000196 s⁻¹
kon (IL-13RA2 huFc (human) [1]): 563000 M⁻¹ s⁻¹
EC50 [2]: 0.33 nM
Kd (IL-13RA2 huFc (human) [3]): 0.348 nM
koff (IL-13RA2 huFc (human) [3]): 0.000196 s⁻¹
kon (IL-13RA2 huFc (human) [3]): 563000 M⁻¹ s⁻¹
B1: 2D3 (scFv_Fc form) (Fc fusion, not shown: a dimerising Fc or GST)
scFv: EVQLLESGGGLVQPGGSLRLSCAASGFTFRRPAMTWVRQAPGKGLEWVSAITGSGGSTYYADSVKGRFTISRDNSKNTLYLQMNSLRAEDTAVYYCVKVRYGWGAGAFDYWGQGTLVTVSSGGGGSGGGGSGGGGSDIQMTQSPSTLSASVGDRVTITCRASQSISSWLAWYQQKPGKAPKLLIYDASSLESGVPSRFSGSGSGTEFTLTISSLQPDDFATYYCQQYDTYPPITFGQGTKVEIK
